Measurements taken from patent US20230065782.

Tests used:
[1] = tested on: control peptide, an HES-bearing peptide of the same length, with the same labeling, that does not contain the conformation-dependent cleavage site
[2] = tested on: eighteen amino acid peptide containing the amino acid sequence PLGIA, covalently labeled with the same fluorophore near each end (HES structure)

For matrix metalloprotease-9 (MMP-9), the “fluorescence intensity on addition of the MMP” value [1] was “The fluorescence of the latter does not increase upon addition of the MMP”, the “fluorescence intensity on cleavage of the HES peptide (peptide at 2 uM, pH 7.5 buffer)” value [2] was “Cleavage of the peptide gives rise to an increase in fluorescence intensity” and the “reverse-phase HPLC retention time of the peptide before and after exposure to the protease” value [2] was “After exposure to MMP-9, the major peaks were at ca. 30 and 31 minutes with the almost complete disappearance of the 38 minute peak”.
